Target: CHIKV VLP
Assay: SPR (Biacore T100), VLP captured by mouse anti-CHIKV mAbs, Fab injected

B1: 4J21 Fab (Fab, V domains shown)
VH: QVQLVQSGSELKKPGASVKVSCKASGYSFTSYSINWVRQAPGQGPEWMGWIDTNTGNPTYAQDFAGRFVFSLDTSVTTAYLQISSLKAGDTAVYYCATYYVDLWGSYRQDYYGMDVWGHGTLVTVSS
VL: QSVVTQPPSVSGTPGQGVTISCSGGSSNIGSNPVNWYQMVPGTAPKLLLYTNNQRPSGVPDRFSGSKSGTSASLAINGLQSEDEADYYCAVWDDSLSGRWVFGGGTKLTVL
In the case of B1, the Kd is reported as 9 nM, the koff is reported as 0.00142 s⁻¹ and the kon is reported as 158000 M⁻¹ s⁻¹. It also gave a t1/2 of 8 min.

B2: 3E23 Fab (Fab, V domains shown)
VH: QVQLVQSGPGLVKPSDTLSLTCSVSSDALRSRSYYWGWVRQPPGKGLEWIGTVSYSGGTYYNPSLQSRVTVSVDTSKNHFSLRLNSVTAADAAVYYCARSYFYDGSGYYYLSYFDSWGQGTLVTVSS
VL: QAVVTQEPSLTVSPGGTVTLTCASSTGAVTSGHYPNWFQQKPGQPPRALIYSTDNKHSWTPARFSGSLLGVKAALTLSDVQPEDEADYYCLLHFGGVVVFGGGTKLTVL
Work on B2 yielded a Kd of 19.6 nM, a koff of 0.000393 s⁻¹ and a kon of 20300 M⁻¹ s⁻¹. The t1/2 was 29 min.
